Measurements reported in the supplement of paper PMC12042874.
± gives the uncertainty stated by the source.

Assay: amyloid nucleation score (Sup35N fusion, yeast selection) (log enrichment); library NNK2; higher = more nucleation; inactive = no reads after selection
Summary of the method: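 Psi-negative yeast expressed Sup35N fused to peptides of 20 random codons. They were induced 24 hours with 100 μM copper sulfate, grown 7 days at 30°C without adenine and uracil, and their plasmid inserts from input and output were Illumina-sequenced. The nucleation score is the DiMSum log enrichment of output over input reads, centred on the mode score of non-aggregating sequences. Sequences with under 100 input reads were excluded.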

In order of falling amyloid nucleation score:
1. TCQLMMCNFVFCCKMTSTLK  8.252 ± 0.047
2. TAGWIFEWTFGPVYVFNSPW  8.016 ± 0.061
3. TLIAYCLL  7.492 ± 0.046
4. STGMRGKYVTFFCSSVIFRQ  7.2 ± 0.06
5. SVYVANYGYPRSGLN  7.02 ± 0.078
6. TCWSFECTIEACLLDHVSTR  5.97 ± 0.081
7. SWNMIQSTIFLPCNLGDYTV  5.678 ± 0.048
8. SSSFHKYRRALWKRKRTWVV  5.63 ± 0.081
9. TIARVIFNPVLCWKVSSRV  5.52 ± 0.063
10. TLLNAYNNTLVWIWFVSMPV  5.46 ± 0.081
11. SRVTYMRATDSMTTVVFWGV  5.31 ± 0.064
12. SSFSIMLCGGVIFCIVAN  5.02 ± 0.078
13. SVFMIYKTVSGGHAYFVVQQ  4.97 ± 0.072
14. SVSDLLLIYVIESSCSHGFK  4.72 ± 0.072
15. STTLIEFSLYIRYYTND  4.64 ± 0.084
16. TFFMVGNMNNTPSPRPARTK  4.57 ± 0.089
17. TLLLTWQY  4.46 ± 0.067
18. SVTGPILICVSLIASFRRSM  4.27 ± 0.061
19. TLECW  4.1 ± 0.049
20. TLFQLFIYLTFKVQVVAGTT  3.92 ± 0.083
21. SVRMYWAGLLSENKRYNSQS  3.89 ± 0.12
22. STCLTLSMRLLA  3.84 ± 0.078
23. TFATIRVAFMVMCRFDG  3.23 ± 0.084
24. THWSCSSKLFGEFGWNFVWK  2.89 ± 0.067
25. SVILILSVGLLTIYLSRNG  2.76 ± 0.078
26. SWRAYSSF  2.73 ± 0.081
27. TFVLLRSW  2.34 ± 0.13
28. SSLHACA  2.21 ± 0.29
29. TDLIAVGCPLMYSMRE  2.04 ± 0.35
30. STMREQRRRAWRKDCDVIKV  1.84 ± 0.22
31. TLKEGRWEVPCLIWIWRVWS  1.6 ± 0.36
32. TIMYYVWCLFFWMCLGYGHS  1.53 ± 0.1
33. THYGLMVCQTPVGRRSASCR  1.32 ± 0.28
34. TLQCDVNTVLILHVYTTYKS  1.13 ± 0.24
35. TLTLCTSSLDC  1.1 ± 0.61
36. SSLDWWSCSGFLNKQQIKSN  1.08 ± 0.12
37. SSLRLDIVRTVHYSQIPEDA  1.04 ± 0.33
38. TCDCIIARFDALTSISRLAL  1.02 ± 0.41
39. TCDWVVLIYPSSGCCRLEWR  0.99 ± 0.36
40. SWHVVQAVIDVVDREV  0.967 ± 0.22
41. TLFSVCSIHEQWPGEVMVSY  0.918 ± 0.47
42. STHSGLSMT  0.877 ± 0.27
43. SSPLPQSCERNRVLRTRLGF  0.874 ± 0.45
44. SVRVVDDGKTGGVGGTSQR  0.767 ± 0.8
45. TFMKGTVIT  0.759 ± 0.74
46. SWGLPKVVIGGLQMRLEVGA  0.754 ± 0.39
47. TDCIWFHYLVTLWFLIRRCP  0.741 ± 0.66
48. TGRITVRRGSHLSLWKSMRL  0.697 ± 0.27
49. TFLGLS  0.658 ± 0.26
50. TDVPSRIGPDMGKYLKAES  0.655 ± 0.62
51. TCRTSTRRPIGWLSWYVG  0.654 ± 0.43
52. SYYDGCQS  0.646 ± 0.49
53. SVLANIMLVVVGNSGKYRSG  0.627 ± 0.74
54. SVALSQVLEKVWESVPKELN  0.62 ± 0.62
55. SVSRSYGEVRLEHTVLETCR  0.619 ± 0.64
56. STRKCFLMLILTRFGMCC  0.603 ± 0.38
57. TFAATIGTCMVEILSMGSPG  0.603 ± 0.52
58. SVIKQNC  0.547 ± 0.47
59. TGLDIGLGWLYMYRGATLAI  0.542 ± 0.35
60. STFSYGCSSTGAFCRLLCRM  0.516 ± 0.64
61. SVFCRKLTLVAGGDARRDCK  0.497 ± 0.57
62. SSVVFCSNPGVYGSSRWTSV  0.492 ± 0.41
63. SSIVEDGLTLLNGGNRIDGY  0.445 ± 0.31
64. SWMSGVVITETHTALGSWVN  0.442 ± 0.37
65. SWVEGRLDGVFWRLVLFTEN  0.433 ± 0.74
66. TDNVIMVERDRASKVCERKG  0.433 ± 0.54
67. SVNMFKFRTDSSFCDLTLCH  0.423 ± 0.8
68. SYVMFSIMEH  0.354 ± 0.65
69. SVFLSKDIKGVNQCGGLWLS  0.296 ± 0.25
70. SWHPRKRWNVCERF  0.273 ± 0.49
71. SVVGRYEYIILGTRAPGTSR  0.272 ± 0.5
72. SVKYFLDSVDVWIDIISAFF  0.256 ± 0.55
73. TLRIGDFPWISWSEGVWVGG  0.244 ± 0.65
74. SWMAQCLPRYTHIADQSDGS  0.238 ± 0.17
75. TKMVCSKRMFVECVLNLF  0.221 ± 0.31
76. TCDKLGAVVMSLLECVNEAP  0.205 ± 0.77
77. TLENQVGSMSIGGFSGGYRR  0.201 ± 1
78. TGRFLEVREQRRDARVEMSR  0.183 ± 1
79. TCLAESGVAMSVS  0.151 ± 0.29
80. SSLWVWYLIVD  0.145 ± 0.21
81. TICSHKRKYNWMIGWRMSTF  0.142 ± 0.45
82. SVLMSCD  0.135 ± 0.65
83. TIFGRENYEDVKSASEVGLS  0.135 ± 0.79
84. SVYRGASKVSRCRNVKTGR  0.132 ± 0.32
85. SSYLTIPIIRVFLR  0.126 ± 0.8
86. THDPNLRCYFVIGTELHSRT  0.126 ± 0.8
87. SYKGALLSEQIL  0.114 ± 0.4
88. SSPKSWNILS  0.106 ± 0.48
89. SSGFQNSSTNGTDAQS  0.101 ± 0.76
90. SVVSGWWVIIFLYSHGVSIE  0.093 ± 0.8
91. TGSVDSSSIV  0.093 ± 0.42
92. TEMWFDGRNSRMIQAH  0.081 ± 0.36
93. TKSVVLMNSMSS  0.072 ± 1.1
94. SSLVGFERGRSMGRGMWVDL  0.041 ± 0.63
95. STPDVVEAWFL  0.039 ± 0.46
96. TGNDFSCFPRALEMATWTTV  0.016 ± 1.1
97. TGCWVEERTRLRLRIYDLLY  0.004 ± 1.1
98. SYMCKAHKRLIIGGKWINGW  -0.031 ± 0.53
99. SSYRLDAWVKKLFSLSQRKG  -0.052 ± 0.32
100. SSKKCDNRGLMLWVRGILVA  -0.059 ± 0.24
101. TKPNVW  -0.067 ± 0.8
102. SVNYMAFWKVPTCGLQGGKG  -0.097 ± 0.76
103. TFPNLHFCFTLLLYKGCVCG  -0.101 ± 1.1
104. TFDPMVGLGISLSALCMGRL  -0.104 ± 0.39
105. TLFGHFSYFQD  -0.124 ± 0.65
106. TGAGVNTGEFCWVDPRSDYQ  -0.161 ± 1.1
107. TFGLHIHKPRMPPHGPWFSL  -0.172 ± 0.34
108. TLFVKTYMSVFYIIACSSC  -0.218 ± 0.64
109. SVLMGG  -0.223 ± 0.54
110. SSASTRDEKGGSGALERERC  -0.243 ± 1.1
111. TECITVVIWVYGAISHRSGT  -0.247 ± 0.27
112. SWVFVWLSH  -0.256 ± 1.1
113. SWKSFKRPGTRCRGQYYYMS  -0.266 ± 1
114. SSGVRPNNLVSFEFHCLELG  -0.28 ± 0.54
115. SVFRND  -0.28 ± 0.3
116. TATETFAF  -0.28 ± 0.28
117. TGRLPLFLQGLDEYPASNPE  -0.288 ± 1.1
118. STMKC  -0.29 ± 0.56
119. TCVAACTSRRGGISRLLPGN  -0.295 ± 0.38
120. SYRRKYSCRLESINTCAVLC  -0.302 ± 0.47
121. TEPSGTGKTRGSQRTLHRYV  -0.323 ± 0.79
122. TLVHNFGCSLGHLKFRQNMW  -0.33 ± 1.1
123. TFLWK  -0.349 ± 0.55
124. SWHFKSKHSCVFFRCEYVVS  -0.373 ± 1
125. STGSWTTVKLGREGAILHAL  -0.407 ± 0.45
126. STLNSYS  -0.42 ± 0.61
127. THVLIFFMVLDLGPFKTGAD  -0.441 ± 1.1
128. SWNSV  -0.442 ± 0.41
129. TIYPFYEKRMRY  -0.459 ± 1.1
130. SYLVLIHKALSFGRTISDHP  -0.467 ± 0.29
131. TCAQYKHGTTVDSNLRSTY  -0.515 ± 0.48
132. SSGTCTSHSLVLIHMGLRYV  -0.54 ± 0.54
133. SYDVLCILRS  -0.547 ± 0.76
134. SSGGGYWLLWVE  -0.559 ± 0.76
135. TICYV  -0.564 ± 0.35
136. SVYPTSGRYYLYRSLIFVGD  -0.57 ± 0.78
137. THFSPMGY  -0.586 ± 1.1
138. TLQLSSADPGLNAFSDVYRV  -0.627 ± 1.1
139. SSSFFYTHVNHHLVLYDGKA  -0.712 ± 1.1
140. TFINAGFRLHFRFYRFVFSK  -0.717 ± 1
141. TAHYLFTWTLSNVILVCGYD  -0.867 ± 0.48
142. STARRRCYFGFGLGQSSAAI  -0.891 ± 1.1
143. TFYIYGIHSLA  -0.917 ± 0.34
144. TDRIDCAFAYDYL  -1.08 ± 0.54
145. SWRWKATAT  -1.09 ± 0.45
146. TCKMIAISRRGIDPGKAMHS  -1.16 ± 0.49
147. TDIKNRHILSNPWIRLYFLI  -1.16 ± 0.62
148. STPPLILQSYV  -1.17 ± 0.75
149. SVWWSSNFINPPDFCNM  -1.19 ± 1.1
150. SSRYPVIWESFVPNWTNSHF  -1.22 ± 1.1
151. SSAGC  -1.23 ± 0.55
152. SWLIDLTRHSFLI  -1.25 ± 0.78
153. TDYYAMWFHSIGRFSG  -1.33 ± 0.38
154. TLKVCSVLIYLYWN  -1.34 ± 0.75
155. SSTIGVGRSLFLLMFYRDLI  -1.44 ± 1
156. THLHQD  -1.55 ± 0.76
157. TIRFS  -1.58 ± 0.37
158. SYTSGYLLVYPFVNIVVFYP  -1.64 ± 1.1
159. SYRSVYYLVMGFPIGHH  -1.67 ± 1
160. TFMMLMEHGRIYFLWASPVA  -1.68 ± 1.1
161. SSPAACYMR  -1.69 ± 1.1
162. TLTYYPFMRYAFTVSLWFLF  -1.83 ± 1.1

With SSFFLTQSKSFGYA the amyloid nucleation score was “inactive”.
For SSMIMTGFLYTYYGVIRVVD, the amyloid nucleation score was “inactive”.
With SSVVISRVPTARICSEEKGP the amyloid nucleation score was “inactive”.
For SYLHGDNQLGLSGASFRSRW, the amyloid nucleation score was “inactive”.
For TCLTGKAVSVDHS, the amyloid nucleation score was “inactive”.
For TFWGTTY, the amyloid nucleation score was “inactive”.
In the case of TGENI, the amyloid nucleation score is reported as “inactive”.
For THVNFW, the amyloid nucleation score was “inactive”.
In the case of TIFHLRDSYINHAKLSSLHG, the amyloid nucleation score is reported as “inactive”.
In the case of TKLYNDIFHNW, the amyloid nucleation score is reported as “inactive”.
For TKVGYLNS, the amyloid nucleation score was “inactive”.
For TLDFCEL, the amyloid nucleation score was “inactive”.
